# Test: yeast display, Sf9 membrane polyspecificity reagent, FACS + sequencing; frameworks hold sequencing errors
# Method in brief: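 Synthetic nanobody libraries on Saccharomyces cerevisiae BJ5465 were galactose-induced for 36–48 hours, stained 1 hour at 4 °C with 10% biotinylated, detergent-solubilized Sf9 membrane reagent and enriched on streptavidin microbeads. FACS then separated cells into low and high (top ~1%) gates by anti-HA (expression) and streptavidin (reagent binding) fluorescence. Genes were colony-PCR amplified, MiSeq 2 × 250 sequenced and CDR-length filtered. A clone's polyreactivity label is that of its gate of origin.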
row,Sequence,polyreactivity (PSR sort gate)
1,QVQLVESGGGLFQAGGSLRLSCAASGFTFYVYAMGWYRQAPGKERELVAAISSGGGSTYYADSVKGRFTISRDNAKNTVYLQMNSLKPEDTAVYYCNKLFPGTYDGAHGYWGQGTQVTVSS,low polyreactivity
2,QVQLVESGGGLVQAGGSLRLSCAASGRTFKYYAMGWYRQAPGKERELVATINYSGGGTNYADSVKGRYTISRDNATNTVSLQMNSLKPDDTAVYYCAARWLWRIPYDYWGEGTQVTVSS,high polyreactivity
3,QVQLVESGGGLVQAGGSLRLSCAASGRTFIPYAMGWYRQAPGKERELVAAISWSGGGTYYADSVKGRFTISRDNAKNTVYLQMNSLKPEDTAVYYCAAEYWDSYGYWTFDYWGQGTQVTVSS,high polyreactivity
4,QVQLVESGGVLVQAGGSLRLSCAASGFIFKKYAMGWYRQEPGKEMELVAAITIGGSTYYADSVKGRFTISRDNAKNTVYLQMNSLKPEDTAVYYCAAVQGKVRGGYYWGQGTQVTVSS,high polyreactivity
5,QVQLVESGGGLVQAGGSLRLSCAASGGIIWAYAMGWYRQAPGKERELVAAISSSTGTTYYADSVKGRFTISRDNAKNTVYLQMNSLKPEDTAVYYCAAYAYIGDYVSYYGGDYWGQGTQVTVSS,low polyreactivity
6,QVQLVDSGGGLVQAGGSLRLSCAASGGIFRQNVMGWYRQAPGKERELVAAISRRGGITYYAEAVKGRFTISRDNAKNTVYLQMNSLKPEDTAVYYCNKKPTWDYSYWGQGTQVTVSS,high polyreactivity
7,QVHLVESGGGLVQAGCSLRLSCAASGSIFSYYAMGWYRQAPGKERELVAAISVSGGNYADSVKGRFTISRDNAKNTVYLQMNSLKPEDTAVYYCAALNVYGSADVTTLEMDYWGQGTQVTVSS,low polyreactivity
8,QVQLVESGGGLVQAGGSLRLSCAASGSTFRRYAMGWYRQAPGKEREISTSDGSTYYADSVKGRFTISRDNAKNTVYLQMNSLKPEDTAVYYCATEIEYYVGSVPDMGYWGQGTQVTVSS,low polyreactivity
9,QVQLVESGGGLVQAGGSLPLSCAASGGTFRGNAMGWYRQAPGKERELVAAITGSGGSTYYADSVTGRFTISRDNAKNTVYLQMNSLKPEDSAVYYCAVDRASRRTYNQYGYWGQGTQVTVSS,high polyreactivity
10,QVQLVESGGGLVQAGGSLRLSCAAAGFTFYIYAMGWYRKAPGKERELVAAITTTTGSTYYADSVKGRFTISRDNAKNTVYLQMNSLKPEDTAVYYCAAEGHYYYFGYYYWGQGTQVTVSS,low polyreactivity
11,QVQLVESGGGLVQAGGSLRLSCAASGRILGVNAMGGYRQAPGKERELVAAINFSGGGTYYADSVKGRFTISRDNAKNTVYLQMNSLKPEDTAVYYCAAGYVTTWFRYDYWGWGQGTQVTVSS,low polyreactivity
12,QVQLVESGGGIVQAGGSLRLSCAASGRTFWGYAMGWYRQAPGKERELVASISGRGGSTYYADSVKERFTISRDTAKNTVYLQINSLQPEDTAVYYCAATYFSVKWYYYWGEGTQVTVSS,high polyreactivity
13,QVQLVESGGGLVQAGGSLRLSCAASGSILNDYAMGWYRQAPGKERELVAGISRGGGTYYADSVKGRFTISRDNAKNTVYLQMNSLKPEDTAVYYCAKRIYWYHYRYDYWGQGTQVTVSS,high polyreactivity
14,QVQLVESGGLLVQAGGSLRLSCAASGRISPKNAMGWYRQAPGKERELVATIRKIGGRTYYADSVKGRFTISRDNAKNTVYLQMNSLKTEDTAVYYCATDFAPSYYPDRFDYWGQGTQVTVSS,low polyreactivity
15,QVQLVESGGGLVQAGGSLRLSCAASGRIFYGNTMGWYRQAPGKERELVAAISRSGGSTYYADSVKGRFTISRDNAKNTVYLQMNSLKPEDTAVYYCNARYYRKYDYWGQGTQVTVSS,high polyreactivity
16,QDQLVESGVGLVQAGGSLRLSCAASGRTFYYNTMGWYRPAPGKETEFVATITSTHDTNYADSVKGRFTISRDNAKNSVYLQMNSLKPEDTAVYYCAKGYLNYGRDWDFDYWGHGTQVTVSS,low polyreactivity
17,QVQLVESGGGLVQAGGSLRLSCAASGRTFNWYAMGWYRQTPGKERELVAGITRIGTTTYYADSVKGRFTISRDNAKITVYLQMNSLKPEDTAVYYCASDQRKLGADFDSWGQGTQVTVSS,high polyreactivity
18,QVQLVESGGGLVQAGGSLRLSSAASGRILPVNTMGWYRQAPGKERELVAVITRSGGRTYYADSVKGRFTISRDYAKNTVYLQMNSLKPEDTAVYYCAADVGFRWYRYTAGPLEYDYWGQGTQVTVSS,high polyreactivity
19,QVQLVESGGGLVQAGGRLRLSCAASGGTFYTYFMGWYRQAPGKERELVAAISQSGGRTYYADSVKGRFTISRDNAKNTVYLQMISLKPEDTAVYYCAAPDESYSFWRLDGLDYWGQGTQVTVSS,high polyreactivity
20,QVQLVESGGGLVQAGGSLRLSCAASGFTFSTYAMGWYRQAPGKESELVAVISGGDSTSYADSVKGRFTISRDNAKNTVYLQMNSLKPEDTAVYYCAADRYGGYYGDTYYTGLFNYWGQGTQVTVSS,high polyreactivity
21,QVQLVESGGGLVQAGASLRLSCAASGFTFVHYALGWYRQAPGKERELVAAITWNGGRTYYADSVQGRFTISRDNAKNTVYFQMNSLKPEDTAVYYCNAVRITYGRYDLDYWGQGTQVTVSS,high polyreactivity
22,QVQLEESGGGLVQAGGSLSLSCDASGRNFEGYAMGWYRQAPGKERELVAAINWSGGTTHYADSVKGRFTISRDNANNTVYLQINSLKPADTAVYYCAVRGRTPYDYWGQGTQVTVSS,low polyreactivity
23,QVQLVESGGGLVQAGGSLRLSCAASGRIFSGNAMGWYRQAPGKERELVAAISWSGGSTYYADSVKGRFTISRDNAKNSVYLQMNSLKPEDTAVSYCNAPGYRRYGSRMGYWGQGTQVTVSS,high polyreactivity
24,QVQLVESGGGLVQAGGSLRLSCAASGSIFWYNAMGWYRQAPGKERELVASISYSGAITYYADSVKGRFTISRDNAKNTVYLQMNSLKPEDTAVYYCNAEHYLPGYDWSEYDSWGQGTQVTVSS,low polyreactivity
25,QVQLVESGGGLVQAGGSLRLSCADSGRIFASYAMGWYRQAPRKERELVAAISWRGGTTYYADSVKGRFTSSRDNAKNTVYLQMNSLKPEDTAVYYCATTSSLGSWGYDYWGQGTQVTVSS,high polyreactivity
26,QVQLVESGGGLGQAGGSLRLSCAASGRTFLFNAMGWYRQAPGKDRELVAAISSGGGSTYYADSVKGRFTISRDNAKNTDYLEMNSLKPEDTAVYFCAAYPYYYRYNYWGQGTQVTVSS,high polyreactivity
27,QVQLVESGGGLVQAGGSLRLSCAASGFIFYRYAMGWYRQAPGKERELVAAISYSGGSTYYADSVKGRFTISRDNAKNTVYLQMNSLKPEDTAVYYCAAGSKYRYDYWGQGTQVTVSS,high polyreactivity
28,QVQLVESGGGLVQAGGSLRLSCAASGRTFRNYAMGWYRQAPGKERELVAAINSGGSTNYADSVKGRFTISRDNAKNTVYLQMNSLKPEDTAVYYCAKRRTYPGKGRFNYWGQGTQVTVSS,low polyreactivity
29,QVQLVESGGGLVQSGGSLRLSCAASGYIFGYYAMGWYRQAPGKERELVAAITGTDDTNYADSVKGRFTISRDNAKNTVYLQMNSLIPEDTAVYYCAAYSWWNEYDYWGQGTQVTVSS,high polyreactivity
30,QVQLVESGGGIVQAGGSLRLSCAASGRIFANYAKGWYRQAPGKERELVAAISRSGGSTSYADSVKGRFTISRDNAKYTVYLQMNSLKPEETAVSYCAVVSPRQSYYYWGQGTQVTVSS,high polyreactivity

# From the nanobody polyreactivity screen of Harvey et al. (2022)
